In publication PMC12640004:
Numbering of substitutions follows the chain as printed.

B1: JrIPT1 bioProbe (wild type) (dsDNA)
DNA 1: ATCATACTGATGGAGGAGGGCGGTCCCGAATTTATATATATAGTTTCTAC
DNA 2: GTAGAAACTATATATATAAATTCGGGACCGCCCTCCTCCATCAGTATGAT
B2: JrIPT1 mbioProbe (GCC-box mutant) (dsDNA)
DNA 1: B1 DNA 1 with G16T, G18T, G19T, G20T, G22T, G23T
DNA 2: B1 DNA 2 with C28A, C29A, C31A, C32A, C33A, C35A

Target: JrERF113-HIS (Juglans regia)
Test: EMSA

| Binder | binding result |
| --- | --- |
| B1 | binds |
| B2 | no binding |
